# Test results as given in publication PMC11471779.
# Target: CapGH3b (Alloprevotella sp. MAG60)
# Test: SEC-MALS
substance,measurement,value
CapGH3b (enzyme),stoichiometry N,2
